How the values were obtained:
[1] = biological target: M2 peptide (extracellular 23-amino-acid peptide of influenza virus matrix M2 protein) (influenza A virus); test: peptide ELISA, antibody at 10 ug/ml
[2] = biological target: M2 truncated peptide CM12 (influenza A virus); test: peptide ELISA, antibody at 10 ug/ml
[3] = biological target: M2 truncated peptide CM13 (influenza A virus); test: peptide ELISA, antibody at 10 ug/ml
[4] = biological target: M2 truncated peptide CM14 (influenza A virus); test: peptide ELISA, antibody at 10 ug/ml
[5] = biological target: M2 truncated peptide CM15 (influenza A virus); test: peptide ELISA, antibody at 10 ug/ml
[6] = biological target: M2 truncated peptide CM16 (influenza A virus); test: peptide ELISA, antibody at 10 ug/ml
[7] = biological target: M2 truncated peptide CM17 (influenza A virus); test: peptide ELISA, antibody at 10 ug/ml
[8] = biological target: M2 truncated peptide M12 (influenza A virus); test: peptide ELISA, antibody at 10 ug/ml
[9] = biological target: M2 truncated peptide M15 (influenza A virus); test: peptide ELISA, antibody at 10 ug/ml
[10] = biological target: M2 truncated peptide M16 (influenza A virus); test: peptide ELISA, antibody at 10 ug/ml
[11] = biological target: M2 truncated peptide NM10 (influenza A virus); test: peptide ELISA, antibody at 10 ug/ml
[12] = biological target: M2 truncated peptide NM11 (influenza A virus); test: peptide ELISA, antibody at 10 ug/ml
[13] = biological target: M2 truncated peptide NM12 (N-terminal 12-amino acid peptide) (influenza A virus); test: peptide ELISA, antibody at 10 ug/ml
[14] = biological target: M2 truncated peptide NM13 (influenza A virus); test: peptide ELISA, antibody at 10 ug/ml
[15] = biological target: M2 truncated peptide NM14 (influenza A virus); test: peptide ELISA, antibody at 10 ug/ml
[16] = biological target: M2 truncated peptide NM16 (influenza A virus); test: peptide ELISA, antibody at 10 ug/ml
[17] = biological target: M2 truncated peptide NM17 (influenza A virus); test: peptide ELISA, antibody at 10 ug/ml
[18] = biological target: M2 truncated peptide NM7 (influenza A virus); test: peptide ELISA, antibody at 10 ug/ml
[19] = biological target: M2 truncated peptide NM8 (influenza A virus); test: peptide ELISA, antibody at 10 ug/ml
[20] = biological target: M2 truncated peptide NN15 (influenza A virus); test: peptide ELISA, antibody at 10 ug/ml
[21] = biological target: M2 truncated peptide NN9 (influenza A virus); test: peptide ELISA, antibody at 10 ug/ml
[22] = biological target: M2 protein expressed on A/HK/1/68 infected MDCK cells (influenza A virus A/HK/1/68); test: cell-based ELISA, half-saturating antibody concentration; conditions: remark: other sources report otherwise

B1: human anti-M2 monoclonal antibody C40G1 (antibody)
chain 1: QLQLQESGPGLVKPSETLSLTCTVSGGSISSSFYYCGWIRQPPGKGLEWIGSIYYRGSTYYNPSLKSRVTISVDTSKNQFSLKLSSVTAADTAVYYCARRVTMVRGVKGDYFDYWGQGTLVTVSS
chain 2: DIQMTQSPSSLSASVGDRVTITCRASQGISSWLAWYQQKPEKVPKSLIYAASSLQSGVPSRFSGSGSGTDFTLTISSLQPEDFATYYCQQYNYYPLTFGGGTKVEIKR
ELISA (OD450) [1]: 2.38 OD450
ELISA (OD450) [2]: 0.11 OD450
ELISA (OD450) [3]: 0.11 OD450
ELISA (OD450) [4]: 0.1 OD450
ELISA (OD450) [5]: 0.1 OD450
ELISA (OD450) [6]: 1.41 OD450
ELISA (OD450) [7]: 3.01 OD450
ELISA (OD450) [8]: 1.95 OD450
ELISA (OD450) [9]: 1.93 OD450
ELISA (OD450) [10]: 1.75 OD450
ELISA (OD450) [11]: 0.11 OD450
ELISA (OD450) [12]: 0.15 OD450
ELISA (OD450) [13]: 0.16 OD450
ELISA (OD450) [14]: 1.82 OD450
ELISA (OD450) [15]: 1.93 OD450
ELISA (OD450) [16]: 2.17 OD450
ELISA (OD450) [17]: 2.18 OD450
ELISA (OD450) [18]: 0.09 OD450
ELISA (OD450) [19]: 0.1 OD450
ELISA (OD450) [20]: 2.67 OD450
ELISA (OD450) [21]: 0.13 OD450
Kd [22]: 0.542 nM

B2: human anti-M2 monoclonal antibody L66 (antibody)
chain 1: EVQLVESGGGVVRPGGSLRLSCAASGFTFDDYGMSWVRQAPGKGLEWVSGINWNGGSTGYADSVKGRFTISRDNAKNSLYLQMNSLRAEDTALYYCARDRVTMVRGVIMDYYGMDVWGQGTTVTVSS
chain 2: QTVVTQEPSLTVSPRGTVTLTCSSSTGAVTSGYYPGWFQLKPGQAPMSLIYSARKKHSWTPARFSGSLLGGKAALTLSGVQPEDEAEYYCLLYYGGAYVFGTGTKVTVLG
ELISA (OD450) [1]: 1.04 OD450
ELISA (OD450) [2]: 0.16 OD450
ELISA (OD450) [3]: 0.15 OD450
ELISA (OD450) [4]: 0.13 OD450
ELISA (OD450) [5]: 0.13 OD450
ELISA (OD450) [6]: 0.13 OD450
ELISA (OD450) [7]: 0.14 OD450
ELISA (OD450) [8]: 0.19 OD450
ELISA (OD450) [9]: 0.2 OD450
ELISA (OD450) [10]: 0.27 OD450
ELISA (OD450) [11]: 0.16 OD450
ELISA (OD450) [12]: 0.17 OD450
ELISA (OD450) [13]: 0.12 OD450
ELISA (OD450) [14]: 0.17 OD450
ELISA (OD450) [15]: 0.16 OD450
ELISA (OD450) [16]: 2.52 OD450
ELISA (OD450) [17]: 1.92 OD450
ELISA (OD450) [18]: 0.18 OD450
ELISA (OD450) [19]: 0.18 OD450
ELISA (OD450) [20]: 0.28 OD450
ELISA (OD450) [21]: 0.16 OD450
Kd [22]: 0.531 nM

Reference: patent US20090196872A1
